Reference: article PMC4137731

Assays:
[1] = molecular target: KpSSBnPaSSBc (K. pneumoniae subsp. pneumoniae MGH 78578 | P. aeruginosa PAO1) (UniProt A6TGW7); test: SEC; purified protein (2 mg/mL) on Superdex 200 HR 10/30 in Buffer D (20 mM potassium phosphate, 1 mM EDTA, 100 mM NaCl, pH 7.0), 0.5 mL/min; calibrated with proteins of known molecular weight; oligomeric state from the native mass against the monomer mass
[2] = molecular target: KpSSBnStSSBc (K. pneumoniae subsp. pneumoniae MGH 78578 | S. enterica serovar Typhimurium LT2) (UniProt A6TGW7); test: as above

Substance	stoichiometry N [1]	stoichiometry N [2]
KpSSBnPaSSBc (from UniProt A6TGW7 1-91; P40947 91-165)	4	–
KpSSBnStSSBc (from UniProt A6TGW7 1-91; P0A2F6 92-176)	–	4
